Test results published in PMC4822050.

Assays:
Experiment in all cases: FP; ITC: 10 mM HEPES pH 8.0, 100 mM NaCl, 18 C; EMSA: 20 mM HEPES pH 7.5, 100 mM NaCl, 8% glycerol, 1 mM DTT, on ice; pull-down: 20 mM HEPES-NaOH pH 8.0, 100 mM NaC
UHRF1 full-length = molecular target: T1, UHRF1 full-length (human, UniProt Q96T88 1-793)
T1 sequence: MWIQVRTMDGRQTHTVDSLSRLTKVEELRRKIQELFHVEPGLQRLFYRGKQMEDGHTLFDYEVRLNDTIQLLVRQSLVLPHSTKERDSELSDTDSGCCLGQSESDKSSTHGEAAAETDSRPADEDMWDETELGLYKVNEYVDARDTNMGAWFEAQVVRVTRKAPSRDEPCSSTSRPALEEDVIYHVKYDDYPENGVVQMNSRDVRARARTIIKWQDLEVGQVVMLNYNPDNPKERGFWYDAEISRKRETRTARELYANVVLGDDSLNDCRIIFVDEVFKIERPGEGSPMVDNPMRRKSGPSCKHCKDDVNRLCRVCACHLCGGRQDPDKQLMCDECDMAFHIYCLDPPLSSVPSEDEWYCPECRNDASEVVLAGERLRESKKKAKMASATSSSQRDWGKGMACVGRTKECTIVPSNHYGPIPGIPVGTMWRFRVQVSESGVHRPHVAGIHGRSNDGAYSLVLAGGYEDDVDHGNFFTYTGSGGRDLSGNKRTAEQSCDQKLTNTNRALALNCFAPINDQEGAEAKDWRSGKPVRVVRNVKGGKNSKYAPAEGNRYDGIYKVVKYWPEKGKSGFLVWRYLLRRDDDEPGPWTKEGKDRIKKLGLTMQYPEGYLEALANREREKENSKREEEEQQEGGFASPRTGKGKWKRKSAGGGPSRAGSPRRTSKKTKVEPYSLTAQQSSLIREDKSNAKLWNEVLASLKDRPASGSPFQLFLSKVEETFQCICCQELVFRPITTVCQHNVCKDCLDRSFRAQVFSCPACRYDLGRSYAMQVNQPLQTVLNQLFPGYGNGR

SRA-Spacer-652 = molecular target: T2, SRA-Spacer-652 (human, UniProt Q96T88 414-652)
T2 sequence: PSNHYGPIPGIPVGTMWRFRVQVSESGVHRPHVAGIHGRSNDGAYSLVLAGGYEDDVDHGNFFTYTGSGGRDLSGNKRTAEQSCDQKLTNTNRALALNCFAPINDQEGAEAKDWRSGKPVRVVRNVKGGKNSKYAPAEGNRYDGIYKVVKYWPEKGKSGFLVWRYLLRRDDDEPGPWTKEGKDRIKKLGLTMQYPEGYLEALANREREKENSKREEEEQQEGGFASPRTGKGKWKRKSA

UHRF1 deltaTTD = molecular target: T3, UHRF1 deltaTTD (human, UniProt Q96T88 1-793, del134-285)
T3 sequence: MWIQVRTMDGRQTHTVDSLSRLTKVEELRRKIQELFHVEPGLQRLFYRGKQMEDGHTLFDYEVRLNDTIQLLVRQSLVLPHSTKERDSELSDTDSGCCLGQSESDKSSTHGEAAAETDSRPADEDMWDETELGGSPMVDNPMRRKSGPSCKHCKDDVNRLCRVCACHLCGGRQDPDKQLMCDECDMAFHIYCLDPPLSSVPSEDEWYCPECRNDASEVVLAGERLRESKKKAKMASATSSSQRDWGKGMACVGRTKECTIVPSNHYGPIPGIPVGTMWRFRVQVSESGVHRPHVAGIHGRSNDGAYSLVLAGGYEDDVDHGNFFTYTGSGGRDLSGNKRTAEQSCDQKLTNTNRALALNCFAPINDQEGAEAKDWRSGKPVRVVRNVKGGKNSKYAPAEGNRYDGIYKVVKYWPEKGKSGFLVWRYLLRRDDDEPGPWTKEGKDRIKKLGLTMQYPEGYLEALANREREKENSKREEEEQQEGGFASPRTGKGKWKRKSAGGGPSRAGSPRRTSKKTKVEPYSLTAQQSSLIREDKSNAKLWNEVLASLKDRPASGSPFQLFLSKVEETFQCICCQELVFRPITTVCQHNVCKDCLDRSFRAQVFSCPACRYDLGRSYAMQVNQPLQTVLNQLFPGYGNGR

SRA-Spacer-642 = molecular target: T4, SRA-Spacer-642 (human, UniProt Q96T88 414-642)
T4 sequence: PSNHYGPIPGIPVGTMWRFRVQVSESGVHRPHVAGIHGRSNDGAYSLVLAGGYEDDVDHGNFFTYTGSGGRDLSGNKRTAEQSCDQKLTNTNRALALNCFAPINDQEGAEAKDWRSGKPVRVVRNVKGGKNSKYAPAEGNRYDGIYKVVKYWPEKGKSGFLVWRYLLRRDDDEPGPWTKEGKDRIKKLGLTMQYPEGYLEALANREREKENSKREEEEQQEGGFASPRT

SRA-Spacer = molecular target: T5, SRA-Spacer (human, UniProt Q96T88 414-674)
T5 sequence: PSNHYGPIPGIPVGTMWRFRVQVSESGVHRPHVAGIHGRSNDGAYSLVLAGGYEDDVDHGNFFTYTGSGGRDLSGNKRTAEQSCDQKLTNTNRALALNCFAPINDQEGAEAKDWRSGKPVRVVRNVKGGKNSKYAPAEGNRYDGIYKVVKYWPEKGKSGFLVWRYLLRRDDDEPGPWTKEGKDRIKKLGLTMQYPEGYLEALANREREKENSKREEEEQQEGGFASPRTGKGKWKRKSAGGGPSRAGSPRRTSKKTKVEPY

B1: FAM-12bp-HM-DNA (dsDNA)
DNA 1: CCATGCGCTGAC
DNA 2: GTCAGCGCATGG
modifications: 5-methyl-dC at position 6 of strand 2 (GTCAGXGCATGG)
Kd (UHRF1 full-length): 350 ± 70 nM | Kd (SRA-Spacer-652): 1870 ± 330 nM | Kd (UHRF1 deltaTTD): 490 ± 80 nM | Kd (SRA-Spacer-642): 6110 ± 1150 nM | Kd (SRA-Spacer): 490 ± 80 nM
